The text below walks through data of the supplement of paper PMC7125110.

± gives the standard error. Variants at the floor of the assay were thinned out. Some results are limits rather than exact numbers.

B1: glmS ribozyme (parent)
chain: AUAAAAGCGCCAGAACUACAGAAAUGUAGUUGACGAGGAGGAGGUUUAUCGAAUUUUCGGCGGAUGCCUCCAAA

Settings in all cases: with glucosamine-6-phosphate
Variants of B1 are the subject of series [1]. As to the kind of experiment: self-cleavage kobs at 640 uM GlcN6P; higher = faster cleavage; RNA array. In a few lines: (§1)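 Ribozyme variants carrying barcodes were transcribed in situ on sequenced MiSeq chips by E. coli RNA polymerase and tracked at 37 °C with a hybridised Cy3 probe. They were exposed to 40 μM to 10 mM glucosamine-6-phosphate in HEPES/KCl/Mg(OAc)2 buffer. kobs came from exponential decay fits of normalised per-tile medians, and kcat and KM from weighted Michaelis–Menten fits.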

In series [2] the parent is B1. As to the kind of experiment: self-cleavage kobs at 2500 uM GlcN6P; higher = faster cleavage; RNA array. In a few lines: as §1
In series [3] the parent is B1. As to the kind of experiment: self-cleavage kobs at 10000 uM GlcN6P; higher = faster cleavage; RNA array. In a few lines: as §1

For the variant G40A G44U, the “self-cleavage kobs at 640 uM GlcN6P” value with glucosamine-6-phosphate [1] is < 1e-05 s⁻¹.

With U45A U57G G62A, in the series with glucosamine-6-phosphate [1], the “self-cleavage kobs at 640 uM GlcN6P” value is < 1e-05 s⁻¹. For the same variant, the “self-cleavage kobs at 2500 uM GlcN6P” value in the series with glucosamine-6-phosphate [2] is < 1e-05 s⁻¹.

On to C16A U30G G35A U69C, for which, in the series with glucosamine-6-phosphate [1], the “self-cleavage kobs at 640 uM GlcN6P” value is < 1e-05 s⁻¹. For the same variant, the “self-cleavage kobs at 2500 uM GlcN6P” value in the series with glucosamine-6-phosphate [2] was < 1e-05 s⁻¹.

Consider G9U G63A, for which the “self-cleavage kobs at 640 uM GlcN6P” value in the series with glucosamine-6-phosphate [1] was < 1e-05 s⁻¹. The “self-cleavage kobs at 2500 uM GlcN6P” value in the series with glucosamine-6-phosphate [2] is < 1e-05 s⁻¹. The “self-cleavage kobs at 10000 uM GlcN6P” value in the series with glucosamine-6-phosphate [3] was < 1e-05 s⁻¹.

In the case of G59U G62A C70G, in the series with glucosamine-6-phosphate [1], the “self-cleavage kobs at 640 uM GlcN6P” value is 5.34e-05 ± 1.5e-05 s⁻¹.

On to G13A G35C G51U, for which the “self-cleavage kobs at 640 uM GlcN6P” value in the series with glucosamine-6-phosphate [1] was < 1e-05 s⁻¹.

For the variant A36U G51U U56G G59A G66A, the “self-cleavage kobs at 640 uM GlcN6P” value with glucosamine-6-phosphate [1] was < 1e-05 s⁻¹.

Consider G29A G40U G41C, for which the “self-cleavage kobs at 640 uM GlcN6P” value in the series with glucosamine-6-phosphate [1] was < 1e-05 s⁻¹.

Turning to G37U G38U G43A, the “self-cleavage kobs at 640 uM GlcN6P” value with glucosamine-6-phosphate [1] was < 1e-05 s⁻¹.

Take G9A G13C A64G C70U: the “self-cleavage kobs at 640 uM GlcN6P” value with glucosamine-6-phosphate [1] was < 1e-05 s⁻¹.

As to A6C C10A G32A G51A A52G A53G G59C G63U C68A, the “self-cleavage kobs at 640 uM GlcN6P” value in the series with glucosamine-6-phosphate [1] came out at 0.000154 ± 5.6e-05 s⁻¹.

In the case of G9U U49A C71A, the “self-cleavage kobs at 640 uM GlcN6P” value in the series with glucosamine-6-phosphate [1] was < 1e-05 s⁻¹.

Take G13U U69C: the “self-cleavage kobs at 640 uM GlcN6P” value in the series with glucosamine-6-phosphate [1] came out at 7.4e-05 ± 2.2e-05 s⁻¹. In the series with glucosamine-6-phosphate [2], the “self-cleavage kobs at 2500 uM GlcN6P” value is 0.000149 ± 3e-05 s⁻¹. For the same variant, the “self-cleavage kobs at 10000 uM GlcN6P” value in the series with glucosamine-6-phosphate [3] amounted to 0.00027 ± 7.1e-05 s⁻¹.

As to C11U A15U G38U G41U U57A, the “self-cleavage kobs at 640 uM GlcN6P” value in the series with glucosamine-6-phosphate [1] is < 1e-05 s⁻¹. For the same variant, in the series with glucosamine-6-phosphate [2], the “self-cleavage kobs at 2500 uM GlcN6P” value is < 1e-05 s⁻¹.

As to A12C A14U U30A U69G, in the series with glucosamine-6-phosphate [1], the “self-cleavage kobs at 640 uM GlcN6P” value was found to be 9e-05 ± 3.5e-05 s⁻¹.

Take C8A G40A C68U: in the series with glucosamine-6-phosphate [1], the “self-cleavage kobs at 640 uM GlcN6P” value was < 1e-05 s⁻¹. The “self-cleavage kobs at 10000 uM GlcN6P” value with glucosamine-6-phosphate [3] was < 1e-05 s⁻¹.

On to G13U G38U, for which the “self-cleavage kobs at 640 uM GlcN6P” value with glucosamine-6-phosphate [1] is < 1e-05 s⁻¹.

Turning to U31G G51A, the “self-cleavage kobs at 640 uM GlcN6P” value in the series with glucosamine-6-phosphate [1] was < 1e-05 s⁻¹.

For G29A U46A, the “self-cleavage kobs at 640 uM GlcN6P” value with glucosamine-6-phosphate [1] is 0.000116 ± 2.5e-05 s⁻¹. Further, the “self-cleavage kobs at 2500 uM GlcN6P” value with glucosamine-6-phosphate [2] was determined as 0.000221 ± 4.8e-05 s⁻¹. The “self-cleavage kobs at 10000 uM GlcN6P” value with glucosamine-6-phosphate [3] was 0.000241 ± 3.6e-05 s⁻¹.

Regarding U30G G37U G40U, the “self-cleavage kobs at 640 uM GlcN6P” value with glucosamine-6-phosphate [1] is < 1e-05 s⁻¹. Further, the “self-cleavage kobs at 2500 uM GlcN6P” value in the series with glucosamine-6-phosphate [2] was < 1e-05 s⁻¹.

In the case of A6C G38U G40A A48G A52U G63C, the “self-cleavage kobs at 640 uM GlcN6P” value in the series with glucosamine-6-phosphate [1] was < 1e-05 s⁻¹. Also, the “self-cleavage kobs at 2500 uM GlcN6P” value with glucosamine-6-phosphate [2] was < 1e-05 s⁻¹.

With G9U G38U C61U, the “self-cleavage kobs at 640 uM GlcN6P” value in the series with glucosamine-6-phosphate [1] is < 1e-05 s⁻¹.

For the variant U30G U49A G66C, the “self-cleavage kobs at 640 uM GlcN6P” value with glucosamine-6-phosphate [1] was < 1e-05 s⁻¹.

Regarding U30A U46G C67U, in the series with glucosamine-6-phosphate [1], the “self-cleavage kobs at 640 uM GlcN6P” value was found to be 0.000117 ± 3.4e-05 s⁻¹. In addition, in the series with glucosamine-6-phosphate [2], the “self-cleavage kobs at 2500 uM GlcN6P” value worked out at 0.00027 ± 0.0001 s⁻¹.

As for A14G U49C, the “self-cleavage kobs at 640 uM GlcN6P” value with glucosamine-6-phosphate [1] was < 1e-05 s⁻¹.

Regarding A39G C50G C67U, the “self-cleavage kobs at 640 uM GlcN6P” value in the series with glucosamine-6-phosphate [1] was 0.000571 ± 0.00018 s⁻¹. Besides, the “self-cleavage kobs at 2500 uM GlcN6P” value with glucosamine-6-phosphate [2] worked out at 0.000299 ± 0.00012 s⁻¹.

As for C50A G62C A64G, in the series with glucosamine-6-phosphate [1], the “self-cleavage kobs at 640 uM GlcN6P” value was < 1e-05 s⁻¹.

For A6G U56C C61G, in the series with glucosamine-6-phosphate [1], the “self-cleavage kobs at 640 uM GlcN6P” value was < 1e-05 s⁻¹. Moreover, the “self-cleavage kobs at 2500 uM GlcN6P” value with glucosamine-6-phosphate [2] is < 1e-05 s⁻¹.

Regarding A12C G35C G44A C50U, in the series with glucosamine-6-phosphate [1], the “self-cleavage kobs at 640 uM GlcN6P” value was < 1e-05 s⁻¹. The “self-cleavage kobs at 2500 uM GlcN6P” value in the series with glucosamine-6-phosphate [2] was < 1e-05 s⁻¹.

Turning to G9A C10G C58U, the “self-cleavage kobs at 640 uM GlcN6P” value with glucosamine-6-phosphate [1] is < 1e-05 s⁻¹. The “self-cleavage kobs at 2500 uM GlcN6P” value with glucosamine-6-phosphate [2] is < 1e-05 s⁻¹.

Turning to C10U G29A C34G C50A G63A G66C, in the series with glucosamine-6-phosphate [1], the “self-cleavage kobs at 640 uM GlcN6P” value is < 1e-05 s⁻¹.

As to G40C G43C C70A, in the series with glucosamine-6-phosphate [1], the “self-cleavage kobs at 640 uM GlcN6P” value was < 1e-05 s⁻¹. For the same variant, the “self-cleavage kobs at 2500 uM GlcN6P” value with glucosamine-6-phosphate [2] is < 1e-05 s⁻¹.

On to C8A A53U G60U, for which the “self-cleavage kobs at 640 uM GlcN6P” value in the series with glucosamine-6-phosphate [1] is < 1e-05 s⁻¹. The “self-cleavage kobs at 2500 uM GlcN6P” value with glucosamine-6-phosphate [2] was < 1e-05 s⁻¹.
